Measured values: the supplement of paper PMC9170038

Assays:
MS2 coat protein [1] = test: apparent KD of MS2 coat protein, switch ON state; designed switch direction (-1 OFF switch, 1 ON switch): -1; higher = weaker reporter binding; conditions: FMN input: 0 or 200 uM; Eterna round: R93 (includes R88 designs)
Method in brief: (§1)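 Titrations with SNAP-549-labelled MS2 coat protein ran in twofold steps from 0.7 or 1.5 nM to 3 µM, each step taking 0.8–1.5 h at the start and 10–20 min toward the end. The targets were designed RNA switches transcribed on-chip from Illumina sequencing clusters, held in 100 mM Tris-HCl pH 7.5, 80 mM KCl, 4 mM MgCl2, without or with constant ligand. Apparent KD was taken per design as the median of normalised cluster binding-curve fits.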

MS2 coat protein [2] = test: apparent KD of MS2 coat protein, switch OFF state (with FMN for OFF switches, without FMN for ON switches); designed switch direction (-1 OFF switch, 1 ON switch): -1; higher = weaker reporter binding; conditions: FMN input: 0 or 200 uM; Eterna round: R93 (includes R88 designs)
Method in brief: as §1

Sequence | apparent KD of MS2 coat protein (MS2 coat protein [1]) | apparent KD of MS2 coat protein (MS2 coat protein [2])
AGUUGGCGAGGAUAUACAUGAGGAUCACCCAUGUGAAAGAAAAAAGUGAGAAAGAAAAGUAGAAGGCGCUGACA [73%, Moding Norbert Elias, 2] | 54.7 nM | 181 nM
AAAAAACAUGAGGAUCACCCAUGUCAGGAUAUCUGUAUUCAAUCCUCGGAUUGAAUACAGAGAAGGGACAUGAA [Ex1: 603] | 41.3 nM | 110 nM
GAGAGACAUGAGGAUCACCCAUGUGAGGAUAUCGGGAGGAGGAGGAGGAGGAGGAGGACGAGAAGGCACGGAAG [salish99-Ex1-06] | 21.6 nM | 35.3 nM
AAAUUGUCAGGAUAUCGUAGAACUCUAAAAUAGAGGAGCUACGAGAAGGGACAUGAGGAUCACCCAUGUAAAAC [May 88] | 56.2 nM | 68.4 nM
GUGUACAGAGGAUAUACAUGGGCAUGGAAACAUGCAUCCUCACAUGAGGAUCACCCAUGUAGAAGGCUGUACAC [Ex2: 708] | 21.6 nM | 20.9 nM
AGUUGGCGAGGAUAUACAUGAGGAUCACCCAUGUAAAAAAAAAAAAAAAAAACUUCAUGUAGAAGGCGCUGACA [Starry Exclusion 3.4 (biggestlegoheroicafanever round 1 mod)] | 85.5 nM | 63.1 nM
AAAGGACGAGGAUAUACAUGAGGAUCACCCAUGUAAAAAACAUAAUAAAAGAACUUAUGUAGAAGGCGUCCAAA [Meechl Ex3 2 R1 - Copy of Meechl Ex3 2 from Round 1] | 53.8 nM | 318 nM
AAAGGACGAGGAUAUACAUGAGGAUCACCCAUGUAAAAAACAUAGUAAAAGAACUUGUGUAGAAGGCGUCCAAA [Meechl Ex3 2 R2 v7] | 159 nM | 181 nM
AAAAAACAUGAGGAUCACCCAUGUGAGGAUAUCUGUAUCCAAAAGGAAGUGUAGGAUCAGAGAAGGCACUAGGA [Power strip] | 40.1 nM | 83.8 nM
AAAAAGCGAGGAUAUACAUGAGGAUCACCCAUGUGAGAGAAAAAAAGGAGAAAAAAAAGUAGAAGGCGCAAAAA [Abraham Harold Maslow] | 63.8 nM | 68.3 nM
ACAAAUGUAGGAUAUACAUGAGGAUCACCCAUGUGGCACAAACAGCAAACAAGACAAAGUAGAAGGACAACGAC [JR_Exc003-Sub901] | 24.9 nM | 28.4 nM
AAAAAGGCAGGAUAUACAAAACAGGGAAACCUGAAAGGGAAACAUGAGGAUCACCCAUGUAGAAGGGCCAAGAA [Clint Eastwood 64% 1] | 37.3 nM | 95.4 nM
AAGCUGGUAGGAUAUACUAGGGCGACUAAUGCGCCGAUAGGACAUGAGGAUCACCCAUGUAGAAGGGCCAGAAA [JR_Exc002_Sub406] | 187 nM | 70 nM
GAAAAACAUGAGGAUCACCCAUGUAAGGAUAUGCUGAAAAACACGGAAAAACGUGACAGCAGAAGGUACAAAAG [Mat - Exclusion 1 - Eli mod - D94] | 18.3 nM | 40 nM
AGCUAGUCAGGAUAUACGAACAGGUGAAAAGACGUAAGGGAACAUGAGGAUCACCCAUGUAGAAGGGACUAGCA [Diamond 53] | 91.3 nM | 99.3 nM
AAAAAGUGAGGAUAUCUGGAUAGGAAAAAGAAAACCUAUCCAGAGAAGGCACAUGAGGAUCACCCAUGUAAAAA [JL cataway mod 5] | 31.6 nM | 41.2 nM
GAAAAACAUGAGGAUCACCCAUGUAAGGAUAUGCGAAAAUAAAAUAAAAUAAAAUAAAGCAGAAGGUACAAAAA [Mat - Exclusion 1 - Eli mod - D1] | 29.5 nM | 40.5 nM

Sequence | apparent KD of MS2 coat protein (MS2 coat protein [1]) | apparent KD of MS2 coat protein (MS2 coat protein [2])
AGAAAACAUGAGGAUCACCCAUGUCAGGAUAUACAAAAUAAAAUAAAAAUAAAAUAAAGUAGAAGGGACAAAGA [Mat - Same state - Mayanna Mod - D109] | 33.5 nM | 42.7 nM
GCUGGCCUAGGAUAUACAUGAGGAUCACCCAUGUGAGAGAAAAAAGUGAGAAAGAAAAGUAGAAGGAGGUUAGG [salish99-ex3-115] | 50.2 nM | 57.2 nM
AAGAAACAUGAGGAUCACCCAUGUGAGGAUAUAGAAGAAAGAAAGAAAGAAAGAAGAACUAGAAGGCACAAAGG [Aemilius Rectus] | 33.1 nM | 35.3 nM
AAAUGACAUGAGGAUCACCCAUGUCAGGAUAUGACUUGAAAAUAAAAUAAAAAACAUGUCAGAAGGGACAUGGG [Design 50: Sub-opt F] | 20.3 nM | 15.5 nM
AAGAAGUGAGGAUAUCGAAGACUGUCGAAAAGACAGUCGAACGAGAAGGCACAUGAGGAUCACCCAUGUGGAAA [Marsurpial 65% 5] | 30.7 nM | 36.3 nM
AAAACACAUGAGGAUCACCCAUGUGAGGAUAUGCUAUGGAAAAUAAAAAUAAAACAUAGCAGAAGGCACAAGGA [Denovo 17] | 28 nM | 50 nM
AACUGACAUGAGGAUCACCCAUGUCAGGAUAUGCAUCUUAGGAAAAAAAAACUAAGAUGCAGAAGGGACAAGGG [Amethyst 48] | 22.7 nM | 33.1 nM
UCUUGACAUGAGGAUCACCCAUGUCAGGAUAUAGUAGGACAAAUAAAUAAAAGUAAUACUAGAAGGGAUAUGGG [Amethyst 52] | 29.8 nM | 32.6 nM
AAAAACCAAGGAUAUACAUGAGGAUCACCCAUGUAAAAAAAAAAAAAGGGAAAAAAAAGUAGAAGGUGGAAAAA [Sekhemre Shedtawy Sobekemsaf II] | 20.9 nM | 38.6 nM
AAAAAGUCAGGAUAUUCGGAUAGGAAAACGAAAACCUAUCCGAAGAAGGGACAUGAGGAUCACCCAUGUGGAAA [67% Ecls-II - Late G segment 1] | 88.7 nM | 170 nM
AGGUGGUCAGGAUAUGCGUGAAGAAUAAAACAAAUAACAACGCAGAAGGGACAUGAGGAUCACCCAUGUCACCA [May 52] | 20.7 nM | 16.6 nM
UUUCACCUAGGAUAUACAUGAGGAUCACCCAUGUGAGGCGAAGGACGGAGGGAUGGUAGUAGAAGGAGGACAAG [Mod of Gedier] | 19.5 nM | 21.6 nM
AAAAAGAGAGGAUAUACAUGAGGAUCACCCAUGUGACAUAAAAUAAAUAAAAUAAAGUGUAGAAGGCUCAAAAA [65%, Moding Exclusion3-cac2, 21] | 41.7 nM | 104 nM
AGAAAGUCAGGAUAUGCAGAAAAAAAAACGAAAAAAAAACUGCAGAAGGGACAUGAGGAUCACCCAUGUUAAAG [Mat - Exclusion 4 - Mayanna - D129] | 46.6 nM | 34.9 nM
AUCAUGUUAGGAUAUAAAAGAAAAGAAAAGAAAGAAAAGAAUUAGAAGGAACAUGAGGAUCACCCAUGUAAGAA [EteRNA is fun!] | 34.7 nM | 26.5 nM
AACUGACAUGAGGAUCACCCAUGUCAGGAUAUGACUUCGAAAAAAAAAAAAAACGAUGUCAGAAGGGACAUGGG [Design 69: Sub-opt OB] | 17.6 nM | 22.3 nM
AGGAAACAUGAGGAUCACCCAUGUCAGGAUAUUGGAAAGAAAAGAAAAGAAAGAAGAAUAAGAAGGGACAAGAA [Hor-Aha] | 38.7 nM | 25.1 nM
